Laboratory results from patent US20220364074, “RNA-GUIDED NUCLEASES AND ACTIVE FRAGMENTS AND VARIANTS THEREOF AND METHODS OF USE” (LIFEEDIT THERAPEUTICS, INC., published 2022).

T1: APG06646.1 (Bacillus sp.)
T1 chain: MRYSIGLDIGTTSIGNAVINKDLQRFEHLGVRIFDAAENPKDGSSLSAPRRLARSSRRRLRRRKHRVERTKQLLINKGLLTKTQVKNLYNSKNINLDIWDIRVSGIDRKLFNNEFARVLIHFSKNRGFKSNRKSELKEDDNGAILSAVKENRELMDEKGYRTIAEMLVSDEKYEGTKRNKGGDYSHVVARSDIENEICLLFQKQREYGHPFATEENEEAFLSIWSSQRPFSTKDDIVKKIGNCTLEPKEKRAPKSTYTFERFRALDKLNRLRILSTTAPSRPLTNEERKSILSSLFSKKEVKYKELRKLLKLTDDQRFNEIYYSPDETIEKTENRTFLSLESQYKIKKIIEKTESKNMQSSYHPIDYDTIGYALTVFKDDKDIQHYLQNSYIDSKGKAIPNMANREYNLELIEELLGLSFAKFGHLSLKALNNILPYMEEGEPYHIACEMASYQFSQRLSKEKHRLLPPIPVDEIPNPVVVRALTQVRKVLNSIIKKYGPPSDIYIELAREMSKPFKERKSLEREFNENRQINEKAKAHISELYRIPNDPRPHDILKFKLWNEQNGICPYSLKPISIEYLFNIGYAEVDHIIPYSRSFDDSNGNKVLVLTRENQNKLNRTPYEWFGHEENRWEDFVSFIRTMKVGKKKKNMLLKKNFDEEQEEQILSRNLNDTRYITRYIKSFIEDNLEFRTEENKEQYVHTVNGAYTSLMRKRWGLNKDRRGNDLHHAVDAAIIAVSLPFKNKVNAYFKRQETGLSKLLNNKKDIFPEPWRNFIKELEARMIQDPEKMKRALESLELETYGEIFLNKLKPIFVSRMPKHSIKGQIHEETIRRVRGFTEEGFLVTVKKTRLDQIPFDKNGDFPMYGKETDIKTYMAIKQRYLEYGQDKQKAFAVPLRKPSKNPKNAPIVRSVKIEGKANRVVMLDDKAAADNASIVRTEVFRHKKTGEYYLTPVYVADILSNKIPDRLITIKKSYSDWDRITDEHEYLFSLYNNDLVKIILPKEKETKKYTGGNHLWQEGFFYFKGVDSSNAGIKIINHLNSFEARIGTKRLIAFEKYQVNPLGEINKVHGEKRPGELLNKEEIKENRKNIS

T2: APG01658.1 (Staphylococcus sp.)
T2 chain: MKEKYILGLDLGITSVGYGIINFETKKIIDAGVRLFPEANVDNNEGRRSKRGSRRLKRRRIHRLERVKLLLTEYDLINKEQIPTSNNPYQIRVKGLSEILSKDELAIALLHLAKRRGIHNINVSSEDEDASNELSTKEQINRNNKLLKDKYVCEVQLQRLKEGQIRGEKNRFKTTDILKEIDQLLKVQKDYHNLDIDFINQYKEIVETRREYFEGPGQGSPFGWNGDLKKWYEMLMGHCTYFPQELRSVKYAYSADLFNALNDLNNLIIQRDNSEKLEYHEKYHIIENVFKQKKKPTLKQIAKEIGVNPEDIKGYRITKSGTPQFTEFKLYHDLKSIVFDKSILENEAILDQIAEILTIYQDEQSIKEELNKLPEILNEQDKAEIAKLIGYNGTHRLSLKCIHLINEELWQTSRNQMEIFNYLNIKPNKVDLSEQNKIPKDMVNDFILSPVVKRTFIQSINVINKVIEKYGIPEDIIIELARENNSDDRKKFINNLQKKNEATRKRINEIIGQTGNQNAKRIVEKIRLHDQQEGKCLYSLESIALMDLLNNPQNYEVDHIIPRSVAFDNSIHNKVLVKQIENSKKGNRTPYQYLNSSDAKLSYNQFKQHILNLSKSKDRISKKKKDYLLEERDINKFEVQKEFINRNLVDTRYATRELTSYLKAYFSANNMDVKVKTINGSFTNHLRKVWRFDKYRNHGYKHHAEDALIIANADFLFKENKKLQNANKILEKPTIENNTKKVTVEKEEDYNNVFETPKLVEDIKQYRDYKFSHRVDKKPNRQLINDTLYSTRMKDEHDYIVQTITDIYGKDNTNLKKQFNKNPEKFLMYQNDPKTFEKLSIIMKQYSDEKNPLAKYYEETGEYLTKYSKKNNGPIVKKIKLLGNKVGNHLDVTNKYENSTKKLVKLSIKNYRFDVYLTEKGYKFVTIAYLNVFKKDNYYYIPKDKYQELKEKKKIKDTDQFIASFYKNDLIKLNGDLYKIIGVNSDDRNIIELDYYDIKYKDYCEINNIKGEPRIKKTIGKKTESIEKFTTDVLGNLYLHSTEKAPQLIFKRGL


Legend:
APG06646.1 = target: T1, APG06646.1; experiment: cell_activity; PAM NNNNC 3'; settings: tags: N-term SV40 NLS and 3xFLAG, C-term 2x nucleoplasmin NLS in HEK293T
APG01658.1 = target: T2, APG01658.1; experiment: cell_activity; PAM SEQ ID NO 44, 3' of target; settings: tags: N-term SV40 NLS and 3xFLAG, C-term 2x nucleoplasmin NLS in HEK293T

| Binder | activity (APG06646.1) [% editing] | activity (APG01658.1) [% editing] |
| --- | --- | --- |
| guide 451 ; TRA target 512 (ssRNA ; dsDNA) RNA: CCCUGGCUGUGCACAUUCCCUCCUGGCCAUAAUUCCUCUGUAAAACUUAAAGAAGGUUUAUAGAGUUAUUAUGGUAAGGCAAUAUGCCGUGGCGUUGGGGAUCGCCUAUGUCCGGUUUUACCGGAUCUCCCUAAAGGUGACUAACUUUGGUUAGUCACCUUUUU DNA 1: CCCTGGCTGTGCACATTCCCTCCTG DNA 2: CAGGAGGGAATGTGCACAGCCAGGG | 7.03 | – |
| guide 462 ; AurkB target 523 (ssRNA ; dsDNA) RNA: GUUUUAAUGGCCCAGCCUCACACCCGCCAUAAUUCCUCUGUAAAACUUAAAGAAGGUUUAUAGAGUUAUUAUGGUAAGGCAAUAUGCCGUGGCGUUGGGGAUCGCCUAUGUCCGGUUUUACCGGAUCUCCCUAAAGGUGACUAACUUUGGUUAGUCACCUUUUU DNA 1: GTTTTAATGGCCCAGCCTCACACCC DNA 2: GGGTGTGAGGCTGGGCCATTAAAAC | 10.9 | – |
| guide 428 ; AurkB target 491 (ssRNA ; dsDNA) RNA: GGCUGGGCCAUUAAAACCUCUCCAGUUUUAGUACUCUGUAAUUUUAGGUAUGAAAGUCAUACCUAAAAUUACAGAAUCUACUGAAACAAGACUAUAUGUCGUGUUUAUCCCACUAAUUUAUUAGUGGGAUUUU DNA 1: GGCTGGGCCATTAAAACCTCTCCA DNA 2: TGGAGAGGTTTTAATGGCCCAGCC | – | 13.1 |
| guide 450 ; AurkB target 493 (ssRNA ; dsDNA) RNA: CAUGGCAGUACAUUAGAGCAGCCAUAAUUCCUCUGUAAAACUUAAAGAAGGUUUAUAGAGUUAUUAUGGUAAGGCAAUAUGCCGUGGCGUUGGGGAUCGCCUAUGUCCGGUUUUACCGGAUCUCCCUAAAGGUGACUAACUUUGGUUAGUCACCUUUUU DNA 1: CATGGCAGTACATTAGAGCA DNA 2: TGCTCTAATGTACTGCCATG | 7.94 | – |
| guide 423 ; RelA target 486 (ssRNA ; dsDNA) RNA: ACAGUGCGCAUCUCCCUGGUCACCGUUUUAGUACUCUGUAAUUUUAGGUAUGAAAGUCAUACCUAAAAUUACAGAAUCUACUGAAACAAGACUAUAUGUCGUGUUUAUCCCACUAAUUUAUUAGUGGGAUUUU DNA 1: ACAGTGCGCATCTCCCTGGTCACC DNA 2: GGTGACCAGGGAGATGCGCACTGT | – | 10 |
